Here are results for six molecules from patent US20040248233A1 (Dana-Farber, published 2004).

For experiment [1], the target named is T1, pVHL (HA-tagged: 35S-HA-pVHL in vitro translate, or HA-pVHL produced in ts20 and WT8 cells) (UniProt P40337 1-213).
T1 construct: Also used for sentences that say only 'pVHL'; In cell lysates pVHL is in complex with elongin B, elongin C and Cul2; also called 35S-labeled pVHL; HA-VHL; not shown: HA tag
Put plainly: biotinylated peptide on avidin Sepharose, 35S-pVHL.

Experiment [2] addresses T1, pVHL (HA-tagged: 35S-HA-pVHL in vitro …). Put plainly: biotinylated peptide, pVHL binding.
For experiment [3], the target named is T2, GST-VHL, elongin B, elongin C complexes (GST-VBC), immobilized on glutathione sepharose (UniProt P40337 54-213; Q15370 1-118; Q15369 17-112).
T2 construct: also called VBC-GST; GST-pVHL, elongin B, elongin C complexes
Nature of the experiment: capture with immobilized GST-VBC.

Where a chain is given by its changes, count along the chain named. Ends that are not written are not given here.

T1 sequence (P40337 whole entry): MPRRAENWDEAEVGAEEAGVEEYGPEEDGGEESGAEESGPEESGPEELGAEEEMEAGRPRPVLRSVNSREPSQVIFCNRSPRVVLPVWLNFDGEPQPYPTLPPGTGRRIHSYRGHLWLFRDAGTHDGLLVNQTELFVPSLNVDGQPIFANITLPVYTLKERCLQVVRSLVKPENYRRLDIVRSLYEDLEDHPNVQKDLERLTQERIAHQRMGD

As to DLDLEMLAAYIPMDDDFQLR (peptide, UniProt Q16665 556-575, looked up, also: biotinylated (position not given here)) [biotinylated HIF1α (556-575) peptide Pro564Ala], the binding result in experiment [1] is on record as “no binding”. With DLDLEALAPYIPADDDFQLR (peptide, UniProt Q16665 556-575, looked up, also: biotinylated (position not given here), also called double alanine substitution) [biotinylated HIF (556-575) peptide with Met561 and Met568 converted to alanine], the binding result in experiment [2] is listed as “binds”.

B1: Pro564Ala Gal4-HA-HIF1α (530-652) (other)
chain: EFKLELVEKLFAEDTEAKNPFSTQDTDLDLEMLAAYIPMDDDFQLRSFDQLSPLESSSASPESASPQSTVTVFQQTQIQEPTANATTTTATTDELKTVTKDRMEDIKILIASPSPTHIHKETT
notes: range 530-652; also called Gal4-ODD Pro564Ala; not shown: Gal4 moiety and HA tag
Consider B1, for which the binding result in experiment [3] is reported as “no binding”.

B2: Leu562Ala Gal4-HA-HIF1α (530-652) (other)
chain: B1 chain with L33A, A35P
notes: range 530-652; also called Gal4-ODD Leu562Ala; not shown: Gal4 moiety and HA tag
For the molecule B2, the binding result in experiment [3] is given as “no binding”. In the case of DLDLEMLAPYIPADDDFQLR (peptide, UniProt Q16665 556-575, looked up, also: biotinylated (position not given here)) [biotinylated HIF (556-575) peptide with the single substitution Met568 to alanine], the binding result in experiment [2] is recorded as “binds”. On the same count and under the same terms, to DLDLEALAPYIPMDDDFQLR (peptide, UniProt Q16665 556-575, looked up, also: biotinylated (position not given here)) [biotinylated HIF (556-575) peptide with the single substitution Met561 to alanine] belongs “binds”.
